This experiment addresses Lysosomal Ras-associated protein 7a (RAB7A), recombinant mouse protein (mouse, UniProt P51150 1-207). Description: SPR. Background: In SPR one partner is held on a chip, and binding of the other changes the refractive index at the surface.

Lysosomal Ras-associated protein 7a (RAB7A), recombinant mouse protein, sequence (P51150 whole entry): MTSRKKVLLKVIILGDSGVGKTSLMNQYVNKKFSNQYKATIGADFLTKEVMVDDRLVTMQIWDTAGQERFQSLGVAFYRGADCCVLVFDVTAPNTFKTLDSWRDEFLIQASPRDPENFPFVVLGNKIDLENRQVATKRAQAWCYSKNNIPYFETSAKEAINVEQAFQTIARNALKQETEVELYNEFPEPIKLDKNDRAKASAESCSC

B1: Sirtuin 5 (SIRT5), recombinant mouse protein (enzyme)
chain: SSNMADFRKCFANAKHIAIISGAGVSAESGVPTFRGAGGYWRKWQAQDLATPQAFARNPSQVWEFYHYRREVMRSKEPNPGHLAIAQCEARLRDQGRRVVVITQNIDELHRKAGTKNLLEIHGTLFKTRCTSCGTVAENYRSPICPALAGKGAPEPETQDARIPVDKLPRCEEAGCGGLLRPHVVWFGENLDPAILEEVDRELALCDLCLVVGTSSVVYPAAMFAPQVASRGVPVAEFNMETTPATDRFRFHFPGPCGKTLPEALAPHETERTS
B1: the Kd (in general, the equilibrium constant for the complex coming apart) was determined as 31.8 nM.
